# Laboratory results: article PMC7083938, “NELL2-Robo3 complex structure reveals mechanisms of receptor activation for axon guidance” (Nature Communications, 2020)
# B1: mNELL1 (full length) (ligand, mouse, UniProt Q2VWQ2 25-809, looked up)
# chain: DPDLQMDIITELDLVNTTLGVTQVAGLHNASKAFLFQDVQREIHSAPHVSEKLIQLFRNKSEFTFLATVQQKPSTSGVILSIRELEHSYFELESSGPREEIRYHYIHGGKPRTEALPYRMADGQWHKVALSVSASHLLLHVDCNRIYERVIDPPETNLPPGSNLWLGQRNQKHGFFKGIIQDGKIIFMPNGFITQCPNLNRTCPTCSDFLSLVQGIMDLQELLAKMTAKLNYAETRLGQLENCHCEKTCQVSGLLYRDQDSWVDGDNCRNCTCKSGAVECRRMSCPPLNCSPDSLPVHISGQCCKVCRPKCIYGGKVLAEGQRILTKTCRECRGGVLVKITEACPPLNCSEKDHILPENQCCRVCRGHNFCAEAPKCGENSECKNWNTKATCECKNGYISVQGNSAYCEDIDECAAKMHYCHANTVCVNLPGLYRCDCIPGYIRVDDFSCTEHDDCGSGQHNCDKNAICTNTVQGHSCTCQPGYVGNGTVCKAFCEEGCRYGGTCVAPNKCVCPSGFTGSHCEKDIDECAEGFVECHNHSRCVNLPGWYHCECRSGFHDDGTYSLSGESCIDIDECALRTHTCWNDSACINLAGGFDCLCPSGPSCSGDCPHEGGLKHNGQVWILREDRCSVCSCKDGKIFCRRTACDCQNPNVDLFCCPECDTRVTSQCLDQSGQKLYRSGDNWTHSCQQCRCLEGEADCWPLACPSLSCEYTAIFEGECCPRCVSDPCLADNIAYDIRKTCLDSSGISRLSGAVWTMAGSPCTTCQCKNGRVCCSVDLVCLEN
# notes: mouse NELL1, D25-N809; trimer by MALS; also called NELL1FL (Polyhedrin, mouse); source: High Five cells (baculovirus), purified (Ni-NTA, SEC)
# Biological target: the molecule itself
# Test: SEC-MALS; Superose 6 Increase 10/300 in HBS (10 mM HEPES pH 7.2, 150 mM NaCl), Wyatt HELEOS II
protein,measurement,value
B1,stoichiometry N,3
